For one data set, the target named is T1, HA-tagged wild-type Nod2 (human, UniProt Q9HC29 1-1040).
T1 construct: Expressed by transfection in HEK293T cells and tested in cell lysates; also called wt Nod2; pcDNA3-Nod2-HA; not shown: HA tag
In words: co-immunoprecipitation from co-transfected HEK293T cells. The source says:
The CARD motif functions as an effector domain that mediates specific homophilic interaction with downstream CARD-containing molecules (Hofmann et al., Trends Biochem. Sci. 22: 155-156 [1997]).

Data set [1] deals with the molecule itself. The data set is described as follows: not described ('our observations').

B1: caspase-1 (enzyme, UniProt P29466 1-404, looked up)
chain: MADKVLKEKRKLFIRSMGEGTINGLLDELLQTRVLNKEEMEKVKRENATVMDKTRALIDSVIPKGAQACQICITYICEEDSYLAGTLGLSADQTSGNYLNMQDSQGVLSSFPAPQAVQDNPAMPTSSGSEGNVKLCSLEEAQRIWKQKSAEIYPIMDKSSRTRLALIICNEEFDSIPRRTGAEVDITGMTMLLQNLGYSVDVKKNLTASDMTTELEAFAHRPEHKTSDSTFLVFMSHGIREGICGKKHSEQVPDILQLNAIFNMLNTKNCPSLKDKPKVIIIQACRGDSPGVVWFKDSVGVSGNLSLPTTEEFEDDAIKKAHIEKDFIAFCSSTPDNVSWRHPTMGSVFIGRLIEHMQEYACSCDVEEIFRKVRFSFEQPDGRAQMPTTERVTLTRCFYLFPGH
notes: Construct and tag not described
As for B1, the binding result with HA-tagged wild-type Nod2 is given as “no binding”.

B2: Nod2 lacking the LRRs (Nod2 1-744) (other)
chain: MGEEGGSASHDEEERASVLLGHSPGCEMCSQEAFQAQRSQLVELLVSGSLEGFESVLDWLLSWEVLSWEDYEGFHLLGQPLSHLARRLLDTVWNKGTWACQKLIAAAQEAQADSQSPKLHGCWDPHSLHPARDLQSHRPAIVRRLHSHVENMLDLAWERGFVSQYECDEIRLPIFTPSQRARRLLDLATVKANGLAAFLLQHVQELPVPLALPLEAATCKKYMAKLRTTVSAQSRFLSTYDGAETLCLEDIYTENVLEVWADVGMAGPPQKSPATLGLEELFSTPGHLNDDADTVLVVGEAGSGKSTLLQRLHLLWAAGQDFQEFLFVFPFSCRQLQCMAKPLSVRTLLFEHCCWPDVGQEDIFQLLLDHPDRVLLTFDGFDEFKFRFTDRERHCSPTDPTSVQTLLFNLLQGNLLKNARKVVTSRPAAVSAFLRKYIRTEFNLKGFSEQGIELYLRKRHHEPGVADRLIRLLQETSALHGLCHLPVFSWMVSKCHQELLLQEGGSPKTTTDMYLLILQHFLLHATPPDSASQGLGPSLLRGRLPTLLHLGRLALWGLGMCCYVFSAQQLQAAQVSPDDISLGFLVRAKGVVPGSTAPLEFLHITFQCFFAAFYLALSADVPPALLRHLFNCGRPGNSPMARLLPTMCIQASEGKDSSVAALLQKAEPHNLQITAAFLAGLLSREHWGLLAECQTSEKALLRHQACARWCLARSLRKHFHSIPPAAPGEAKSVHAMPGFIWLIR
notes: also called Nod2ΔLRR
For the molecule B2, the binding result in data set [1] was “binds”.

B3: procaspase-9 (enzyme, UniProt P55211 1-416, looked up)
chain: MDEADRRLLRRCRLRLVEELQVDQLWDALLSRELFRPHMIEDIQRAGSGSRRDQARQLIIDLETRGSQALPLFISCLEDTGQDMLASFLRTNRQAAKLSKPTLENLTPVVLRPEIRKPEVLRPETPRPVDIGSGGFGDVGALESLRGNADLAYILSMEPCGHCLIINNVNFCRESGLRTRTGSNIDCEKLRRRFSSLHFMVEVKGDLTAKKMVLALLELAQQDHGALDCCVVVILSHGCQASHLQFPGAVYGTDGCPVSVEKIVNIFNGTSCPSLGGKPKLFFIQACGGEQKDHGFEVASTSPEDESPGSNPEPDATPFQEGLRTFDQLDAISSLPTPSDIFVSYSTFPGFVSWRDPKSGSWYVETLDDIFEQWAHSEDLQSLLLRVANAVSVKGIYKQMPGCFNFLRKKLFFKTS
notes: as for B1
As to B3, in the data set with HA-tagged wild-type Nod2, the binding result is “no binding”.

B4: caspase-4 (enzyme, UniProt P49662 1-377, looked up)
chain: MAEGNHRKKPLKVLESLGKDFLTGVLDNLVEQNVLNWKEEEKKKYYDAKTEDKVRVMADSMQEKQRMAGQMLLQTFFNIDQISPNKKAHPNMEAGPPESGESTDALKLCPHEEFLRLCKERAEEIYPIKERNNRTRLALIICNTEFDHLPPRNGADFDITGMKELLEGLDYSVDVEENLTARDMESALRAFATRPEHKSSDSTFLVLMSHGILEGICGTVHDEKKPDVLLYDTIFQIFNNRNCLSLKDKPKVIIVQACRGANRGELWVRDSPASLEVASSQSSENLEEDAVYKTHVEKDFIAFCSSTPHNVSWRDSTMGSIFITQLITCFQKYSWCCHLEEVFRKVQQSFETPRAKAQMPTIERLSMTRYFYLFPGN
notes: as for B1
On to B4, for which the binding result with HA-tagged wild-type Nod2 is given as “no binding”.

B5: Bcl-10 (other, UniProt O95999 1-233, looked up)
chain: MEPTAPSLTEEDLTEVKKDALENLRVYLCEKIIAERHFDHLRAKKILSREDTEEISCRTSSRKRAGKLLDYLQENPKGLDTLVESIRREKTQNFLIQKITDEVLKLRNIKLEHLKGLKCSSCEPFPDGATNNLSRSNSDESNFSEKLRASTVMYHPEGESSTTPFFSTNSSLNLPVLEVGRTENTIFSSTTLPRPGDPGAPPLPPDLQLEEEGTCANSSEMFLPLRSRTVSRQ
notes: as for B1
Regarding B5, the binding result in the data set with HA-tagged wild-type Nod2 is given as “no binding”.

The record behind these values is US20020127673A1 (REGENTS OF THE UNIVERSITY OF MICHIGAN, published 2002).
